Data as given in patent US11584938B2, “Plant EPSPS mutant containing L195P and S247G mutations and encoding gene and use thereof” (GEVOTO LLC, priority 2017, dated 2023).

Test system: transgenic rice plants
Experiment: glyphosate resistance of the EPSPS mutant in transgenic rice plants sprayed with Roundup 41% ammonium glyphosate
Type: in vivo, rice (Nipponbare)
Procedure, shortened: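 EPSPS mutant genes were cloned into pGVP1 and introduced into Nipponbare rice embryo-derived calluses via Agrobacterium EHA105 (OD 0.2, 10 min infection, 2–3 days co-culture at 25 °C in the dark). Calluses went through recovery, two 14-day screening rounds at 30 °C, two differentiation rounds and rooting to regenerate transgenic plants.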

[1] = 1× dosage 1060 g/hectare glyphosate sprayed, recorded on 10th day
[2] = 2× dosage 2120 g/hectare sprayed to plants surviving 1×, recorded 10 days later
[3] = 5× dosage 5300 g/hectare sprayed to plants surviving 2×, recorded 10 days later
[4] = 20× dosage 21200 g/hectare sprayed to plants surviving 5×, recorded 10 days later

Row | Molecule | %++&+++ (percentage of plant having medium and high glyphosate resistance to the total number of plants observed) [1] | number of plants denoted by + (low glyphosate resistance) [1] | number of plants denoted by ++ (medium glyphosate resistance) [1] | number of plants denoted by +++ (high glyphosate resistance) [1] | number of plants denoted by − (no glyphosate resistance) [1] | glyphosate resistance / survival of the rice transformed by the EPSPS, in words (1× glyphosate dosage) | number of plants denoted by + (low glyphosate resistance) [2] | number of plants denoted by ++ (medium glyphosate resistance) [2] | number of plants denoted by +++ (high glyphosate resistance) [2] | number of plants denoted by − (no glyphosate resistance) [2] | glyphosate resistance / survival of the rice transformed by the EPSPS, in words (2× glyphosate dosage) | &++&+++ (percentage of plant having medium and high glyphosate resistance to the total number of plants observed) [3] | number of plants denoted by + (low glyphosate resistance) [3] | number of plants denoted by ++ (medium glyphosate resistance) [3] | number of plants denoted by +++ (high glyphosate resistance) [3] | number of plants denoted by − (no glyphosate resistance) [3] | &++&+++ (percentage of plant having medium and high glyphosate resistance to the total number of plants observed) [4] | number of plants denoted by + (low glyphosate resistance) [4] | number of plants denoted by ++ (medium glyphosate resistance) [4] | number of plants denoted by +++ (high glyphosate resistance) [4] | further results
1 | R2: rice EPSPS mutant, SEQ ID NO: 32, merely containing the mutation P116(101)S; control (protein) MASNAAAAAAKAEEIVLQPIREISGAVQLPGSKSLSNRILLLSALSEGTTVVDNLLNSEDVHYMLEALKALGLSVEADKVAKRAVVVGCGGKFPVEKDAKEEVQLFLGNAGTAMRSLTAAVTAAGGNATYVLDGVPRMRERPIGDLVVGLKQLGADVDCFLGTECPPVRVKGIGGLPGGKVKLSGSISSQYLSALLMAAPLALGDVEIEIIDKLISIPYVEMTLRLMERFGVKAEHSDSWDRFYIKGGQKYKSPGNAYVEGDASSASYFLAGAAITGGTVTVQGCGTTSLQGDVKFAEVLEMMGAKVTWTDTSVTVTGPPREPYGKKHLKAVDVNMNKMPDVAMTLAVVALFADGPTAIRDVASWRVKETERMVAIRTELTKLGASVEEGPDYCIITPPEKLNITAIDTYDDHRMAMAFSLAACADVPVTIRDPGCTRKTFPNYFDVLSTFVRN | 81.0% | 9 | 10 | 37 | 2 | had relatively high resistance to glyphosate | 17 | 18 | 14 | 9 | had relatively high resistance to glyphosate | 3.4% | 40 | 2 | 0 | 16 | 0.0% | 1 | 0 | 0 | %++&+++ (percentage of plant having medium and high glyphosate resistance to the total number of plants observed) [2]: 26.8%; number of plants denoted by − (no glyphosate resistance) [4]: 57
2 | R5: rice EPSPS mutant, SEQ ID NO: 38, mutations S267(247)G and P116(101)S (protein) MASNAAAAAAKAEEIVLQPIREISGAVQLPGSKSLSNRILLLSALSEGTTVVDNLLNSEDVHYMLEALKALGLSVEADKVAKRAVVVGCGGKFPVEKDAKEEVQLFLGNAGTAMRSLTAAVTAAGGNATYVLDGVPRMRERPIGDLVVGLKQLGADVDCFLGTECPPVRVKGIGGLPGGKVKLSGSISSQYLSALLMAAPLALGDVEIEIIDKLISIPYVEMTLRLMERFGVKAEHSDSWDRFYIKGGQKYKSPGNAYVEGDASSAGYFLAGAAITGGTVTVQGCGTTSLQGDVKFAEVLEMMGAKVTWTDTSVTVTGPPREPYGKKHLKAVDVNMNKMPDVAMTLAVVALFADGPTAIRDVASWRVKETERMVAIRTELTKLGASVEEGPDYCIITPPEKLNITAIDTYDDHRMAMAFSLAACADVPVTIRDPGCTRKTFPNYFDVLSTFVRN | 84.2% | 0 | 6 | 10 | 3 | had relatively high resistance to glyphosate | 3 | 6 | 4 | 6 | had relatively high resistance to glyphosate | 42.1% | 3 | 8 | 0 | 8 | 0.0% | 8 | 0 | 0 | %++&+++ (percentage of plant having medium and high glyphosate resistance to the total number of plants observed) [2]: 63.3%; number of plants denoted by − (no glyphosate resistance) [4]: 11
3 | R4: rice EPSPS mutant, SEQ ID NO: 36, mutation S267(247)G (protein) MASNAAAAAAKAEEIVLQPIREISGAVQLPGSKSLSNRILLLSALSEGTTVVDNLLNSEDVHYMLEALKALGLSVEADKVAKRAVVVGCGGKFPVEKDAKEEVQLFLGNAGTAMRPLTAAVTAAGGNATYVLDGVPRMRERPIGDLVVGLKQLGADVDCFLGTECPPVRVKGIGGLPGGKVKLSGSISSQYLSALLMAAPLALGDVEIEIIDKLISIPYVEMTLRLMERFGVKAEHSDSWDRFYIKGGQKYKSPGNAYVEGDASSAGYFLAGAAITGGTVTVQGCGTTSLQGDVKFAEVLEMMGAKVTWTDTSVTVTGPPREPYGKKHLKAVDVNMNKMPDVAMTLAVVALFADGPTAIRDVASWRVKETERMVAIRTELTKLGASVEEGPDYCIITPPEKLNITAIDTYDDHRMAMAFSLAACADVPVTIRDPGCTRKTFPNYFDVLSTFVRN | 66.7% | 46 | 62 | 44 | 7 | obviously superior to that of the rice seedlings transformed by R0 | 136 | 10 | 2 | 11 | some of the transgenic rice seedlings transformed by R1 and R4 still survived | 0.0% | 67 | 0 | 0 | 92 | 0.0% | 8 | 0 | 0 | glyphosate resistance / survival of the rice transformed by the EPSPS, in words (5× glyphosate dosage): some of the transgenic rice seedlings transformed by R1 and R4 still survived; number of plants denoted by − (no glyphosate resistance) [4]: 151; glyphosate resistance / survival of the rice transformed by the EPSPS, in words (20× glyphosate dosage): some of the transgenic rice seedlings transformed by R1 and R4 still survived
4 | R3: rice EPSPS mutant, SEQ ID NO: 34, mutations L214(195)P and P116(101)S (protein) MASNAAAAAAKAEEIVLQPIREISGAVQLPGSKSLSNRILLLSALSEGTTVVDNLLNSEDVHYMLEALKALGLSVEADKVAKRAVVVGCGGKFPVEKDAKEEVQLFLGNAGTAMRSLTAAVTAAGGNATYVLDGVPRMRERPIGDLVVGLKQLGADVDCFLGTECPPVRVKGIGGLPGGKVKLSGSISSQYLSALLMAAPLALGDVEIEIIDKPISIPYVEMTLRLMERFGVKAEHSDSWDRFYIKGGQKYKSPGNAYVEGDASSASYFLAGAAITGGTVTVQGCGTTSLQGDVKFAEVLEMMGAKVTWTDTSVTVTGPPREPYGKKHLKAVDVNMNKMPDVAMTLAVVALFADGPTAIRDVASWRVKETERMVAIRTELTKLGASVEEGPDYCIITPPEKLNITAIDTYDDHRMAMAFSLAACADVPVTIRDPGCTRKTFPNYFDVLSTFVRN | 76.8% | 18 | 39 | 24 | 1 | had relatively high resistance to glyphosate | 59 | 12 | 10 | 1 | had relatively high resistance to glyphosate | 13.4% | 59 | 11 | 0 | 12 | 7.3% | 28 | 6 | 0 | %++&+++ (percentage of plant having medium and high glyphosate resistance to the total number of plants observed) [2]: 7.5%; number of plants denoted by − (no glyphosate resistance) [4]: 48
